Reference: patent US11549134B2, “Modified amadoriase and method for producing the same, agent for improving surfactant resistance of amadoriase and composition for measuring HbA1c using the same” (Kikkoman Corporation, priority 2013, dated 2023)

How the values were obtained:
Type in all cases: biochemical
[1] = Surfactant resistance (residual activity) of CFP-D multiple variants, 0.04% CTAC; settings: 30°C, 5 minutes, crude enzyme
Method: An amadoriase crude enzyme solution or an amadoriase purified sample is diluted with a 30 mM MES/21 mM Tris buffer solution (pH6.5) so as to have a concentration of about 1.0 U/ml. To this, CTAC (for example, manufactured by Tokyo Kasei Kogyo Co., Ltd.) is added so as to obtain a final concentration 0.01% (w/v) or 0.04%. The resultant mixture is heated at 30° C. for 5 minutes. After heating, the mixture is diluted double with a 10 mM phosphate buffer (pH7.0) containing 0.15% BSA to prepare a sample. The enzyme activities of the sample before and after a surfactant treatment are measured by the method described in Section B above. The ratio of activity of the sample after the surfactant treatment relative to the activity of the sample before the surfactant treatment (regarded as 100), i.e., the residual activity (%), is obtained. In this manner, surfactant resistance is evaluated. […]

[2] = Surfactant resistance (residual activity), 0.04% TTAC; settings: 20 mM potassium phosphate buffer (pH 7.0)
Method: (§1) An amadoriase crude enzyme solution or an amadoriase purified sample is diluted with a 30 mM MES/21 mM Tris buffer solution (pH6.5) so as to have a concentration of about 1.0 U/ml. To this, CTAC (for example, manufactured by Tokyo Kasei Kogyo Co., Ltd.) is added so as to obtain a final concentration 0.01% (w/v) or 0.04%. The resultant mixture is heated at 30° C. for 5 minutes. After heating, the mixture is diluted double with a 10 mM phosphate buffer (pH7.0) containing 0.15% BSA to prepare a sample. The enzyme activities of the sample before and after a surfactant treatment are measured by the method described in Section B above. […] In this manner, surfactant resistance is evaluated.
Tetradecyltrimethylammonium chloride (hereinafter indicated with “TTAC”) was used in place of the surfactant CTAC used in Example 2 to evaluate the stability of CFP-D. The surfactant resistance of various modified amadoriases was evaluated in accordance with a measurement method for surfactant resistance according to Example 1, although under surfactant treatment conditions in which the amadoriases were each diluted in a 20 mM potassium phosphate buffer solution (pH 7.0) and mixed with 0.04% TTAC. In this respect, it was confirmed that when the warmed sample was again measured for activity 30 minutes after 2-fold dilution in a BSA solution, there was no change in the activity value.

[3] = Surfactant resistance (residual activity), 0.04% SDS; settings: 30 mM MES/21 mM Tris buffer (pH 6.5)
Method: as §1
The stability of CFP-D was evaluated using sodium dodecyl sulfate (hereinafter indicated with “SDS”) in place of the surfactant CTAC used in Example 2. The surfactant resistance of the modified amadoriases was evaluated in accordance with a measurement method for surfactant resistance according to Example 1 although under surfactant treatment conditions in which the amadoriases were each diluted in a 30 mM MES/21 mM Tris buffer solution (pH 6.5) and mixed with 0.04% SDS. In this respect, it was confirmed that when the warmed sample was again measured for activity 30 minutes after 2-fold dilution in a BSA solution, there was no change in the activity value.

[4] = Surfactant resistance (residual activity) of CcFX variants, 0.01% CTAC; settings: 30°C, 5 minutes, 20 mM potassium phosphate buffer (pH 7.0), crude enzyme, Table 1-2
Method: as §1
Using a recombinant plasmid containing CcFX gene (SEQ ID NO: 55) as a starting plasmid, various variants were produced as in the procedures described in (1) and (2) above in Escherichia coli strain JM109 (pKK223-3-CcFX) having the plasmid. […] Subsequently, the surfactant resistance of the modified amadoriases was evaluated according to the measurement method for surfactant resistance described in (4) although under surfactant treatment conditions in which the amadoriases were each diluted in a 20 mM potassium phosphate buffer solution (pH 7.0) and mixed with 0.01% CTAC. […]

B1: CFP-D: amadoriase derived from the genus Coniochaeta with E98A, F43Y, G184D, deletion of 3 carboxy-terminal amino acid residues; SEQ ID NO: 3 (protein, listed as Coniochaeta sp.)
chain: MTSNRADTRVIVVGGGGTIGSSTALHLVRSGYAPANITVLDTYEIPSAQSAGHDLNKIMGIRLRNKVDLQMSLEARQMWKEDELFQPFFHNTGRMDCAHTPEGIEDLKKQYQALHDAGAGLEKTHAWLDNEDEILSKMPLLQRDQIQGWKAIWSQDGGWLAAAKAINAIGQFLKERGVKFGFGDAGSFKQPLFDDEGTTCIGVETADGTKYYADKVVLAAGAWSPTLVDLEDQCCSKAWVYAHIQLTPEEAAEYKGVPVVYNGEFGFFFEPDEFGVIKVCDEFPGFSRFKEHQPYGAPSPKRISVPRSHAKHPTDTYPDASEVSIKKAIATFLPRFQDKELFNRALCWCTDTADAALLMCEHPKWKNFILATGDSGHSFKILPNVGKYVVELIEGRLPEEMAYQWRWRPGGDALKSRRAAPPKDLADMPGWKHD
modifications: 3 C-terminal residues deleted
Residual Activity(%) [1]: 12.7% | Residual Activity(%) [2]: 29.2% | Residual Activity(%) [3]: 11.3%

B2: CcFX: ketoamine oxidase derived from Curvularia clavata, SEQ ID NO: 37 (protein, listed as Curvularia clavata)
chain: MAPSRANTSVIVVGGGGTIGSSTALHLVRSGYTPSNITVLDTYPIPSAQSAGNDLNKIMGIRLRNKVDLQLSLEARQMWREDDLFKEYFHNTGRLDCAHGEEGLADLRQAYQALLDANAGLEETTEWLDSEDEILKKMPLLDREQIKGWKAVYSQDGGWLAAAKAINAIGEYLRAQGVKFGFGGAGSFKQPLLAEGVCIGVETVDGTRYYADKVVLAAGAWSPVLVDLEDQCVSKAWVYAHIQLTPEEAAEYKNVPVVYNGDVGFFFEPDEHGVIKVCDEFPGFTRFKQHQPYGAKAPKRISVPRSAAKHPTDTYPDASEKSIRKAIATFLPKFTEKELFNRHLCWCTDTADAALLMCEHPEWKNFVLATGDSGHTFKLLPNIGKHVVELLEGTLAEDLAHAWRWRPGTGDALKSRRAAPAKDLADMPGWKHDDVVKSKL
Residual Activity(%) [4]: 27.4%
